In patent US20230071609A1 (Genentech, published 2023):
Each block holds one binder with its values, some of them ahead of it.

How the values were obtained:
[1] = molecular target: T1, gD-iAPOL1-GPI (construct b, aa 61-398) (human, UniProt O14791 61-398, C-terminal GPI anchor); experiment: flow cytometry, live CHO cells, 5 µg/ml; conformational = only bound to full length APOL1
T1 construct: Stably expressed on CHO cells under a doxycycline-inducible promoter; also called gD-APOL1-GPI; gD-APOL1-G0-GPI
T1 sequence: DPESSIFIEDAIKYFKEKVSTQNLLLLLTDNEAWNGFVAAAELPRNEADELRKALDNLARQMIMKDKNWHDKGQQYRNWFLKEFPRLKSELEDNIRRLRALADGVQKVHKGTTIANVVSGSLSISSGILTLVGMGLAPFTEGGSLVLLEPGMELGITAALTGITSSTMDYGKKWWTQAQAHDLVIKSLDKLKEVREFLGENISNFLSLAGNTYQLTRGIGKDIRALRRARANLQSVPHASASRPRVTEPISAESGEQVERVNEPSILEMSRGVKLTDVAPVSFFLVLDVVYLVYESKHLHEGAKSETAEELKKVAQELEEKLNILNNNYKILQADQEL
Description: (§1) Stably transfected live (not fixed or permeabilized) CHO cells expressing the gD-iAPOL1-GPI constructs indicated in FIGS. 1A-1E after induction with 5 μg/ml dox for 48 h, showing differential antibody binding at 5 μg/ml. […] White histograms are Alexa488 anti-mouse or anti-rabbit secondaries only; grey histograms are the anti-APOL1 signals. A representative histogram for each category is shown: 3.7D6 for PFD; 3.3A8 for C-terminus of MAD, 3.5H9 for N-terminus of MAD; 3.1C1 for SRA-ID; 3.2D4 for multi-domain; 3.3F7 for conformational and 3.5B10 for FACS-negative (FACS-ve). The prefix 3 in the name of the antibodies denotes murine monoclonals from Method #3 (as shown in Example 1 below); other antibodies (not illustrated here) starting with the number 4 are murine monoclonals derived from mice additionally boosted with SRA-ID protein; and prefix 5-named antibodies are rabbit monoclonals from Method #5 (Table 2A; and Example 2). […] The Sigma polyclonal (HPA018885, raised to aa 263-387) and the Epitomics rabbit monoclonal (EPR2907(2), raised to an undisclosed peptide) are SRA-ID binders. […]
(§2) Cells were harvested with 5 mM EDTA in PBS, washed once with growth media and twice with PBS. […] Signals were read in a FACSCalibur3 (Becton Dickinson), with the exception of FIG. 8A and FIG. 14, which used a FACSCelesta, and data was analyzed using FlowJo v8.4.5.

[2] = molecular target: T2, gD-PFD-MAD-GPI (construct c) (human, UniProt O14791 61-305, C-terminal GPI anchor); experiment: flow cytometry, live CHO cells; conformational = only bound to full length APOL1, but not individual domains
T2 sequence: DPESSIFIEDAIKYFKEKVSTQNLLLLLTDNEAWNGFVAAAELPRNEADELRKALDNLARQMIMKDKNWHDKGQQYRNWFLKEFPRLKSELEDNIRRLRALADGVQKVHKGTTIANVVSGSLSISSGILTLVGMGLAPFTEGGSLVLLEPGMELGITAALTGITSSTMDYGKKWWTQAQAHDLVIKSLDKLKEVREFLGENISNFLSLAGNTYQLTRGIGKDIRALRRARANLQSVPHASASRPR
Description: (§3) Stably transfected live (not fixed or permeabilized) CHO cells expressing the gD-iAPOL1-GPI constructs indicated in FIGS. 1A-1E after induction with 5 μg/ml dox for 48 h, showing differential antibody binding at 5 μg/ml. […] White histograms are Alexa488 anti-mouse or anti-rabbit secondaries only; grey histograms are the anti-APOL1 signals. A representative histogram for each category is shown: 3.7D6 for PFD; 3.3A8 for C-terminus of MAD, 3.5H9 for N-terminus of MAD; 3.1C1 for SRA-ID; 3.2D4 for multi-domain; 3.3F7 for conformational and 3.5B10 for FACS-negative (FACS-ve). The prefix 3 in the name of the antibodies denotes murine monoclonals from Method #3 (as shown in Example 1 below); other antibodies (not illustrated here) starting with the number 4 are murine monoclonals derived from mice additionally boosted with SRA-ID protein; and prefix 5-named antibodies are rabbit monoclonals from Method #5 (Table 2A; and Example 2). […] The Sigma polyclonal (HPA018885, raised to aa 263-387) and the Epitomics rabbit monoclonal (EPR2907(2), raised to an undisclosed peptide) are SRA-ID binders. Successful APOL1 surface expression of each construct was confirmed with the anti-gD epitope tag (gD-tag) antibody (to Herpes Simplex Virus glycoprotein D).
(§4) Cells were harvested with 5 mM EDTA in PBS, washed once with growth media and twice with PBS. Approximately 0.5×10⁶/m1 of cells resuspended in PBS were incubated with anti-APOL1 antibodies for 1 h on ice. Following two PBS washes, 2 μg/ml of Alexa488 anti-mouse or anti-rabbit (Invitrogen A11029 and A21206, respectively) was used for 1 h on ice for detection. Cells were washed twice in PBS and resuspended in PBS with 1 μg/ml propidium iodide. Signals were read in a FACSCalibur3 (Becton Dickinson), with the exception of FIG. 8A and FIG. 14, which used a FACSCelesta, and data was analyzed using FlowJo v8.4.5.

[3] = molecular target: T3, gD-SRA-ID-GPI (construct e) (human, UniProt O14791 305-398, C-terminal GPI anchor); experiment: as above
T3 sequence: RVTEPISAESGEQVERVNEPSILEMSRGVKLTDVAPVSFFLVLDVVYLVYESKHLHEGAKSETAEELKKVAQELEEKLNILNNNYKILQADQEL
Description: as §3, §4

[4] = molecular target: T4, gD-MAD-SRA-ID-GPI (construct d) (human, UniProt O14791 238-398, C-terminal GPI anchor); experiment: as above
T4 sequence: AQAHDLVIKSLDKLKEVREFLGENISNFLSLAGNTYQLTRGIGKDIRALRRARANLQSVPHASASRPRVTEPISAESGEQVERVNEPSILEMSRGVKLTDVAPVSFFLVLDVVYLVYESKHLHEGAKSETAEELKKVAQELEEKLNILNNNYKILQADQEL
Description: as §3, §4

[5] = molecular target: T5, circulating APOL1 in normal human serum (human, UniProt O14791 28-398); experiment: cell-based or functional assay
T5 sequence (looked up): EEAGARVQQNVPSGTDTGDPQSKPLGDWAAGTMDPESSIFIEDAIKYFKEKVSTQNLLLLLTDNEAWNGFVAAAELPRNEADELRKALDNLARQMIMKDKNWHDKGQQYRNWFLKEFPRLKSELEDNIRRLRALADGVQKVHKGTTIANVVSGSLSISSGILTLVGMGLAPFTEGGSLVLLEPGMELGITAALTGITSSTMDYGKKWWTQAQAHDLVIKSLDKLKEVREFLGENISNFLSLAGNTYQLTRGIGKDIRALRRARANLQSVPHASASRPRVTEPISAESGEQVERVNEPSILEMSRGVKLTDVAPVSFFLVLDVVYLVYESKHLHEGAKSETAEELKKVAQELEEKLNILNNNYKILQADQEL

[6] = molecular target: T3, gD-SRA-ID-GPI (construct e); experiment: flow cytometry, live CHO cells; 3.3A8 is the representative for the C-terminus of MAD
Description: as §1, §2

APOL6-myc-FLAG = molecular target: T6, APOL6-myc-FLAG (human, UniProt Q9BWW8 1-343); experiment: immunofluorescence on transfected COS cells; grade
T6 construct: whole, on cells; In fixed, permeabilized transfected COS cells; untagged APOL6 in the western blots; not shown: C-terminal myc-FLAG tag
T6 sequence (looked up): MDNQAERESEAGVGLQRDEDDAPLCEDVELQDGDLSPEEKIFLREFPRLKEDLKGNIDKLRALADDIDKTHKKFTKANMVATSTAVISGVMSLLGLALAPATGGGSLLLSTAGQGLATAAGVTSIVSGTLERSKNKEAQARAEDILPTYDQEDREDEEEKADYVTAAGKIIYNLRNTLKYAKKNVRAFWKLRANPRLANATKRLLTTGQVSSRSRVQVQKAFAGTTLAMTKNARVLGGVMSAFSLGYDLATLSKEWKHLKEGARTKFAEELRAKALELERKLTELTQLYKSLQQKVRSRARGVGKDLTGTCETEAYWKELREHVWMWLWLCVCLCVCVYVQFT
From the text: COS cells were transfected as in FIG. 31A except APOL1 and APOL2 were also C-terminally myc-FLAG tagged. Overlays of APOL with epitope tags: either mouse anti-FLAG-M2 or mouse anti-myc 9E10 for anti-APOL1 rabmabs; or rabbit anti-Myc 71D10 in conjunction with mouse anti-APOL1. Signals indicate the two antibodies overlap (i.e. anti-APOL1 cross-reacts with that APOL); signals (epitope tag only) indicate no cross-reactivity. Alexa647 anti-rabbit or mouse were used for the tags to rule out the possibility that any colocalization was a bleed-through artifact. Sparsely transfected areas were imaged to permit evaluation of background staining in adjacent untransfected cells—DAPI nuclear staining identifies both untransfected and transfected cell nuclei. […] Note that none of the antibodies cross-reacted with the more distantly related APOL6. *, APOL2-myc-FLAG is presumably misfolded, since it is not as cross-reactive as untagged APOL2 (compare FIG. 31A) with several antibodies. Commercial antibodies are Sigma HPA018885, Epitomics EPR2907 (2) (Epito) and Proteintech 11486-2-AP (Ptech).
Cells were plated on LabTekII (Nalge Nunc 154534) slides and fixed at 70-100% confluency. For mAb screening, cells were fixed/permeabilized for 5 min in −20° C. methanol (EMD MX0485-6). For all other experiments, cells were fixed in 3% paraformaldehyde in PBS (EMS 15710) for 20 mins at room temperature, quenched with 50 mM NH₄Cl in PBS for 10 mins, then permeabilized with 0.1% TX-100 in PBS for 4 mins or for 1h in saponin buffer [0.4% saponin (Sigma S7900), 1% bovine serum albumin (BSA; Sigma A2153), 2% fetal bovine serum (Seradigm) in PBS]. First antibodies (stored sterile at 4° C.) were applied for 1 h at room temperature, at 1 μg/ml for screening on transfected cells or at subsequently optimized concentrations for detecting endogenous APOL1. After 3×10 min washes in PBS (for Methanol or TX-100 protocols) or saponin buffer (saponin protocol), secondary antibodies were applied at 1.88 μg/ml for 1 h at room temperature, washed 3× and mounted under No. 1.5 coverslips in ProLong Gold with DAPI (4′,6-diamidino-2-phenylindole; Life Technologies P36931).

[7] = molecular target: T7, untagged APOL1-G0, KIK variant, transiently expressed (COS cells) (human, UniProt O14791 29-398); experiment: immunofluorescence on transfected COS cells, 1 µg/ml; grade
T7 construct: Origene SC109941 clone with E150K, M228I, R255K
T7 chain: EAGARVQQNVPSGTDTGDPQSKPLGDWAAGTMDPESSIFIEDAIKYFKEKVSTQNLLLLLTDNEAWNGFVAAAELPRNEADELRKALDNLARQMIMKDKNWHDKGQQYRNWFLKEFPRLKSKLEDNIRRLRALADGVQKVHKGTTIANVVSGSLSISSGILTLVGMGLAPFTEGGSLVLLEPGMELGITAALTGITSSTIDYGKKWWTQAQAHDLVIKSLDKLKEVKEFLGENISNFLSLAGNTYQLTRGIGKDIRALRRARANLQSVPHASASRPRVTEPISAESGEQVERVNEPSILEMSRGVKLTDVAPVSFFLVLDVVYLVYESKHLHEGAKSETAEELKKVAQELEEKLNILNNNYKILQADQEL

[8] = molecular target: T5, circulating APOL1 in normal human serum; experiment: immunoprecipitation from normal human serum with Dynabead-conjugated antibody
Description: FIGS. 17A-17C show immunoprecipitation of APOL1 from NHS with a different set of APOL1 antibodies. FIG. 17A show as in FIG. 5D that all the blocking antibodies could immunoprecipitate APOL1, except the conformational antibody 3.7F5 (SEQ ID NOS: 203-212), which is also a poor blocker.
Anti-APOL1 antibodies were conjugated to Dynabeads (ThermoFisher 14311D) as per the manufacturer's protocol. Briefly, 10 μg of each antibody was conjugated to 2 mg of Dynabeads overnight at 37° C. with rotation. Next day, unbound antibody was washed off and conjugated antibody was resuspended at a final concentration of 50 μg/ml. 2-5 μg of the conjugated antibody was incubated with 1 μl of undiluted human serum at 4° C. for 16 h in a total volume of 500 μl with PBS. Unbound serum was washed with 150 mM NaCl in PBS. Bound APOL1 was eluted with low pH glycine buffer (this was preferable to direct boiling to avoid elution of non-specifically bound proteins). Eluates were boiled in 5× sample buffer (Invitrogen 39000) and loaded on 4-12% Bis-Tris gels (Invitrogen NP03220). Immunoprecipitated APOL1 was detected by rabbit polyclonal APOL1 antibody (Proteintech 11486-2-AP, 1:1000) and ECL. APOA1 was detected with goat anti-APOA1 (Rockland 600-101-109), HPR was detected with 1 μg/ml rabbit anti-HPR (Millipore ABS 196) and ECL Prime. […]

- binding result [1]: binds
- binding result [2]: no binding (tested: 5 µg/ml)
- binding result [3]: no binding (tested: 5 µg/ml)
- binding result [4]: no binding (tested: 5 µg/ml)
B1: antibody 3.3F7 (antibody, V domains shown)
VH: QVQLKQSGPSLVQPSQSLSITCTVSGFSLTTYGVHWVRQSPGKGLEWLGVIWRGGNTDYNAAFMSRLSITKDNSQSQVFFKMNSLQADDTAIYYCAKSSYGYHYTMDYWGHGTSVTVSS
VL: DIVVTQSHRFMSTSVGDRVIITCKASQNVGTAVAWYQQKPGQSPKLLIYWASTRHTGVPDRFTGSGSGTDFTLTISNVQSEDLADYFCQRYNNFPFTFGSGTKLEIKR
notes: Mouse mAb, cloned as murine IgG2a LALAPG

- IC50 of blocking of serum APOL1-mediated trypanolysis (Alamar Blue) [5]: 400 pM
- binding result [6]: no binding (tested: 5 µg/ml)
- binding result (APOL6-myc-FLAG): no binding (tested: 1 µg/ml)
- binding result [7]: binds
B2: antibody 3.3A8 (antibody, V domains shown)
VH: QVQFQQSGAELVRPGASVKVTCKALGYTFSNYEIHWVRQPPVHGLEWIGAIHPGNGVTAYNQMFKGRATLAADKSSSTAYMELSSLTSEDSAVYYCTENFDYWGQGTALTVSS
VL: DVVVTQTPLSLPVSFGDQVSISCRSSQSLTNSYGITYLSWFLLKPGQSPQLLIYEISNRFSGVPDRFSGSGSGTDFTLKISTIKPEDLGVYFCLQGTHQPFTFGAGTKLEIKR
notes: Mouse mAb, cloned as murine IgG2a LALAPG; also called MAD antibody 3.3A8

- binding result [8]: no binding
B3: antibody 3.7F5 (antibody, V domains shown)
VH: EIHLQQSGPEVVQPGASLKVSCKASDYSFTDYNVFWVKQSHGKSLEWIAYIDPYNGATSYNQKFKDKATLTVDKSSSTAFMYLNSLTSEDSAVYYCARGTVRAFFDSWGQGTTLTVSS
VL: DIVMSQSPSSLVVSVGEKVSLSCKSSQSLLYRNDQINYLAWYQQKPGQSPKLLIFWASTRESGVPVRFTGSGSGTDFTLNINTVKAEDLAVYYCQQYYSYPPTFGTGTKLEIKR
notes: Mouse mAb, cloned as murine IgG2a LALAPG; also called conformational antibody 3.7F5
